Assays:
Assay in all cases: Crosslinking/co-immunoprecipitation/mass spectrometry (TMT quantitative proteomics) to identify irisin receptors
Type in all cases: binding
[1] = target: T1, MLO-Y4 cell surface proteins (Mus musculus, UniProt P63038); settings: co-precipitated protein Hspd1 (CH60_MOUSE)
T1 construct: endogenous in cells; host or cells: MLO-Y4
In short: (§1)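 Mouse MLO-Y4 cells were switched to serum-free FreeStyle medium for 4 h, chilled, then exposed to 10 nM His-tagged irisin (or adipsin as control) for 20 min. Cells were crosslinked with 1.5 mM DTSSP (30 min, ice), and bound proteins were pulled down on Ni-NTA and eluted with 250 mM imidazole. Eluates were separated by SDS-PAGE, trypsin-digested in gel, TMT 6-plex labelled and quantified by MS3-based LC-MS/MS on an Orbitrap Fusion Lumos.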

[2] = target: T2, MLO-Y4 cell surface proteins (Mus musculus, UniProt P97350); settings: co-precipitated protein Pkp1 (PKP1_MOUSE)
T2 construct: endogenous in cells; host or cells: MLO-Y4
T2 sequence (P97350 1-728): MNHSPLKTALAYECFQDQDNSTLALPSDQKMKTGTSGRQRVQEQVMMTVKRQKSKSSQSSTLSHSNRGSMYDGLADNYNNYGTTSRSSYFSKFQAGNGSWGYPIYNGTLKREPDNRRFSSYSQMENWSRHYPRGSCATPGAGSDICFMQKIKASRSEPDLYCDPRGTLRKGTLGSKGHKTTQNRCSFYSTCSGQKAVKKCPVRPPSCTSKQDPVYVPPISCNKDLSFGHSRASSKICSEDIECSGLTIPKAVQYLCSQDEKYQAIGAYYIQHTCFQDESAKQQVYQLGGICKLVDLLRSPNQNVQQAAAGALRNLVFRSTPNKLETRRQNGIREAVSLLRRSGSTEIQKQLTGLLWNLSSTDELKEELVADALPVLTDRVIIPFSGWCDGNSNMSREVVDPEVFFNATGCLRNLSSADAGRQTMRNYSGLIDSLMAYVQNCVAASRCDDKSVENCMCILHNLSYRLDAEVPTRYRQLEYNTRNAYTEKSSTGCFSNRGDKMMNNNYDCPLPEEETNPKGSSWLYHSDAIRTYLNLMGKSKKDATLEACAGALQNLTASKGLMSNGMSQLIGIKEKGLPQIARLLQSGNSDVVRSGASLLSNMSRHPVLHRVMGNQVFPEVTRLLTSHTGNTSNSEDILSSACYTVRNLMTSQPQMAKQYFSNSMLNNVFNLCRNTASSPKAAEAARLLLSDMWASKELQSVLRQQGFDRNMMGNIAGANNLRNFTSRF
In short: as §1

[3] = target: T3, MLO-Y4 cell surface proteins (Mus musculus, UniProt Q62028); settings: co-precipitated protein Pla2r1 (PLA2R_MOUSE)
T3 construct: endogenous in cells; host or cells: MLO-Y4
In short: as §1

[4] = target: T4, MLO-Y4 cell surface proteins (Mus musculus, UniProt Q66L42); settings: co-precipitated protein Map3k10 (M3K10_MOUSE)
T4 construct: endogenous in cells; host or cells: MLO-Y4
In short: as §1

T3 sequence (Q62028 27-1487): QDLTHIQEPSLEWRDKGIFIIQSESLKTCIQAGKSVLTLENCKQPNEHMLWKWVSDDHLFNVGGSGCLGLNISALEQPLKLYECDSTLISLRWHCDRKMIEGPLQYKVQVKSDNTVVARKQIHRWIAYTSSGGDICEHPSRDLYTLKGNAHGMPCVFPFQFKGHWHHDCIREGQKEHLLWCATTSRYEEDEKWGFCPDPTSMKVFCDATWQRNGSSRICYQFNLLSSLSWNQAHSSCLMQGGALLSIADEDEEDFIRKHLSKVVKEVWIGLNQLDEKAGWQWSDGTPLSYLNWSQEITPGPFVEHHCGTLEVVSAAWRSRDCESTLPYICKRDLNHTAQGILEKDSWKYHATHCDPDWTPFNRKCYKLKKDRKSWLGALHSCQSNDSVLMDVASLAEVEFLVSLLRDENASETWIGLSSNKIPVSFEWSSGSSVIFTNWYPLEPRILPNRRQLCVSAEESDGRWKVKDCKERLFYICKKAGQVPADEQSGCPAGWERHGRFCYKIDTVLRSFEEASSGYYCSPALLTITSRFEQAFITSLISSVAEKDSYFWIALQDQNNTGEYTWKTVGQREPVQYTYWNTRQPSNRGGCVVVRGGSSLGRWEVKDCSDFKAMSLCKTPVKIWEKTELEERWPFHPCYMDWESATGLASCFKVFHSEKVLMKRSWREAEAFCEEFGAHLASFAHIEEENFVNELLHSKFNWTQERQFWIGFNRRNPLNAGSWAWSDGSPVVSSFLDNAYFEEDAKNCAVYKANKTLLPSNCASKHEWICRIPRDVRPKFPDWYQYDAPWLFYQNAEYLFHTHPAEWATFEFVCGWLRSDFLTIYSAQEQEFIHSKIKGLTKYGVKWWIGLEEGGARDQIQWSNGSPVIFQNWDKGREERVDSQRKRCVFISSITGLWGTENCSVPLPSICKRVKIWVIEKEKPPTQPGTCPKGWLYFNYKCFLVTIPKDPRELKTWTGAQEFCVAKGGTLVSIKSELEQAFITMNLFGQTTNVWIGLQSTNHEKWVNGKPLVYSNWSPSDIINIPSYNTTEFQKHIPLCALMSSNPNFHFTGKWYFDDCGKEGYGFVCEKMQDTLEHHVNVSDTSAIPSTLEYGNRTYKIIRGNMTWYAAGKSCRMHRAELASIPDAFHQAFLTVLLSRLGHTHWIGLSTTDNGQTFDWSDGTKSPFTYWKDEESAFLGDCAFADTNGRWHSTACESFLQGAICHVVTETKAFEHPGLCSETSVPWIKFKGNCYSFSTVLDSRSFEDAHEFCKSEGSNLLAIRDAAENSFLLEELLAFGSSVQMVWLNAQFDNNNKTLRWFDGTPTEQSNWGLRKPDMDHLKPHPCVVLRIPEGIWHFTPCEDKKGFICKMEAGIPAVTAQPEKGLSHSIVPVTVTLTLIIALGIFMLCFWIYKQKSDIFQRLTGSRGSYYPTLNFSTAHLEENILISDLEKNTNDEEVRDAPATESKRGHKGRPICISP
T4 sequence (Q66L42 whole entry): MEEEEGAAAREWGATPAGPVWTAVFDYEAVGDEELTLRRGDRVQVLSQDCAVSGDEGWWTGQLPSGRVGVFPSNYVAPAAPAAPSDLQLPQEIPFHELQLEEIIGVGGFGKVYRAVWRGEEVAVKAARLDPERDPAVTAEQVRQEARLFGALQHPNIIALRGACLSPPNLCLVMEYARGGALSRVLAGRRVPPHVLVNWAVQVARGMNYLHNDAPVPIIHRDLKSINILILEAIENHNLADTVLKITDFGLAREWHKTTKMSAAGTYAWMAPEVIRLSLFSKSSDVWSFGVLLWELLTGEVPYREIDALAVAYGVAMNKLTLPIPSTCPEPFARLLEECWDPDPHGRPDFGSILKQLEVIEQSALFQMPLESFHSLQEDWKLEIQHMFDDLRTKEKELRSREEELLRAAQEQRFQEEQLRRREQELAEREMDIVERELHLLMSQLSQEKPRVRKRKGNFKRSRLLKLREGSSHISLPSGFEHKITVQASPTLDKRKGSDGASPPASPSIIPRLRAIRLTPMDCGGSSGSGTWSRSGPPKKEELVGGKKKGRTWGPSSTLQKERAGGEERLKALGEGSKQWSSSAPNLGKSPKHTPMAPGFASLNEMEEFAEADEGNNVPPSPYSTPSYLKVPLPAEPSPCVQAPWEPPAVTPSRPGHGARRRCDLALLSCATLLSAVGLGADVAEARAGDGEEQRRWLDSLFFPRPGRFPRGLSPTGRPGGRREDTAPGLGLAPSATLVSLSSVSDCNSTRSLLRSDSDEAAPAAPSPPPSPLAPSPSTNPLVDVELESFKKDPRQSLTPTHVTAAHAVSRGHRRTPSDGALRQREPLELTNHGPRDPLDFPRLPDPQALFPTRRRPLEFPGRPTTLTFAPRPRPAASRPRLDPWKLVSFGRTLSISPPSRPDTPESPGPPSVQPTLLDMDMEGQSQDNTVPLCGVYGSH
T1 sequence (P63038 27-573): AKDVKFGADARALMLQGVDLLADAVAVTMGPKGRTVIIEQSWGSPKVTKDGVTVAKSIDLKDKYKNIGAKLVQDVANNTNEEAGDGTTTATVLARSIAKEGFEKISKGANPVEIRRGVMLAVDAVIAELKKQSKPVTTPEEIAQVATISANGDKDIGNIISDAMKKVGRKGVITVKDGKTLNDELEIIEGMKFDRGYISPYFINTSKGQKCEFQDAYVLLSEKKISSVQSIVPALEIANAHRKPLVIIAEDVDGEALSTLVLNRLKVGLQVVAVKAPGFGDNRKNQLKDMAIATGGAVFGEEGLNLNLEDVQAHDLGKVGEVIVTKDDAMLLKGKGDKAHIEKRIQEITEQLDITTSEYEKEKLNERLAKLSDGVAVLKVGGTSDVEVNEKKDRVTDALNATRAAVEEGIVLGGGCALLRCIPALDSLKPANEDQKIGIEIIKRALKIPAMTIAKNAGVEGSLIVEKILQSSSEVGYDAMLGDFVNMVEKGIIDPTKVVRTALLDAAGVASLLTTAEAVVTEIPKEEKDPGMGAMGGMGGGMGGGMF

TMT signal-to-noise ratio [1]: 4263.9
TMT signal-to-noise ratio [2]: 98.2846
TMT signal-to-noise ratio [3]: 519.664
TMT signal-to-noise ratio [4]: 109.366
Substance: adipsin

From US20210063414A1, “METHODS FOR PREVENTING AND/OR TREATING BONE LOSS CONDITIONS BY MODULATING IRISIN” (Dana-Farber Cancer Institute, Inc., priority 2018, published 2021)
